What was measured:
Format in all cases: biochemical
[1] = substrate: CC[C@H](C)[C@H](NC(=O)[C@@H](NC(=O)[C@H](CCCCN)NC(=O)[C@@H](NC(=O)[C@H](CCC(=O)Nc1ccc([N+](=O)[O-])cc1)NC(=O)[C@@H](N)Cc1ccc(O)cc1)C(C)C)C(C)C)C(=O)NCC(N)=O; assay: Cleavage of pNA substrates by activated factor XIIIa, absorbance at 405 nm (Michaelis-Menten kinetics and pre-test); details: other: pNA substrates, 37 °C, enzyme ca. 1,25 Einheiten/ml, varied substrate concentration, pH 7.5
Experimental: (§1) 250 Einheiten lyophilisiertes Fibrogammin HS (Aventis Behring) wurden in 4 ml Wasser gelöst, als 100 µl Portionen aliquotiert und bei -80 °C gelagert. 100 µl dieser Lösung enthalten 6,25 Einheiten FXIII.
(§2) 100 µl des aliqotierten Fibrogammins (entspricht 6,25 Einheiten) wurden mit 500 µl TBS-Puffer (50 mM Tris-HCl, pH 7,5 in 0,9% (w/v) NaCl), 360 µl einer 0.9 % NaCl-Lösung, 10 µl einer 1 M CaCl2-Lösung und 20 µl einer Thrombinlösung (Rinderthrombin: 14,2 U in 20 µl) versetzt. Der Ansatz wurde 20 min bei 37 °C inkubiert, danach wurden 10 µl einer Lösung mit rekombinantem Hirudin zugesetzt (r-Hirudin: HBW 023 mit 13442 IU mg^-1, Stammlösung des r-Hirudin = 1 mg/ml). Dieser Aktivierungsansatz besitzt ein Gesamtvolumen von 1 ml, der aktivierte Faktor Xllla wurde bei 37 °C aufbewahrt und für die folgenden kinetischen Messungen verwendet.
(§3) Die Messungen wurden bei 405 nm und 37 °C mit einem Microplate Reader der Firma Labsystems (iEMS Reader MF) mit folgendem Messansatz durchgeführt: • 150 µl TBS-Puffer (siehe oben, der Puffer kann gegebenenfalls auch eine Aminkomponente enthalten, beispielsweise H-Gly-Ethylester oder H-Gly-Gly-Ethylester oder ein anderes Amin, falls vorhanden ist die finale Konzentration des Amins im Messansatz 2,5 mM oder höher) • 50 µl Substratlösung • 50 µl Enzymlösung (im Messansatz ca. 1,25 Einheiten/ml)
(§4) Sämtliche Lösungen wurden vor Benutzung bei 37 °C aufbewahrt, vor Zugabe der FXllla-Lösung wurde die Mikroreadermessplatte nochmals 5 min bei 37 °C im Messgerät temperiert. Nach Zugabe der FXllla-Lösung wurde die Substratspaltung gestartet und die Änderung der Absorption bei 405 nm gemessen. Für einen Vortest wurde eine konstante Substratkonzentration verwendet. […] Wir haben vermutet, dass vor allem die Aminosäuren N- und C-terminal des Glu(pNA)-Restes wichtig für die Substraterkennung sind, deshalb wurde das N-terminale Glycin und das an dritter Position befindliche Serin innerhalb der Berichromsequenz durch andere Aminosäurereste ersetzt. Durch den Vortest wurde festgestellt, dass einige dieser Substrate deutlich schneller als die Derivate S1 und S2 gespalten werden. Für ausgewählte Substrate wurden die Substratkonzentrationen im Messansatz variiert und die bestimmten Umsatzgeschwindigkeiten als Funktion der Substratkonzentration entsprechend der Michaelis-Menten-Gleichung v=Vmax·[S]/(Km+[S]) aufgetragen und somit die kinetischen Konstanten Km und Vmax bestimmt, wobei Vmax in der Einheit Absorptionsänderung bei 405 nm/s erhalten wurde. Dies ist in Fig. 1 und Fig. 2 gezeigt.

[2] = substrate: CC[C@H](C)[C@H](NC(=O)[C@@H](NC(=O)[C@H](CCCCN)NC(=O)[C@@H](NC(=O)[C@H](CCC(=O)Nc1ccc([N+](=O)[O-])cc1)NC(=O)[C@@H](N)Cc1ccc(O)cc1)C(C)C)C(C)C)C(N)=O; assay: as above; details: other: pNA substrates, 37 °C, enzyme ca. 1,25 Einheiten/ml, varied substrate concentration, pH 7.5
Experimental: as §1, §2, §3, §4

[3] = substrate: CC[C@H](C)[C@H](NC(=O)[C@@H](NC(=O)[C@H](CCCNC(=N)N)NC(=O)[C@@H](NC(=O)[C@H](CCC(=O)Nc1ccc([N+](=O)[O-])cc1)NC(=O)[C@@H](N)Cc1ccc(O)cc1)C(C)C)C(C)C)C(=O)NCC(N)=O; assay: as above; details: other: pNA substrates, 37 °C, enzyme ca. 1,25 Einheiten/ml, varied substrate concentration, pH 7.5
Experimental: as §1, §2, §3, §4

[4] = substrate: CC[C@H](C)[C@H](NC(=O)[C@H](CCC(=O)Nc1ccc([N+](=O)[O-])cc1)NC(=O)[C@@H](N)Cc1ccc(O)cc1)C(=O)N[C@@H](CCCCN)C(=O)N[C@H](C(=O)N[C@H](C(=O)NCC(N)=O)[C@@H](C)CC)C(C)C; assay: as above; details: other: pNA substrates, 37 °C, enzyme ca. 1,25 Einheiten/ml, varied substrate concentration, pH 7.5
Experimental: as §1, §2, §3, §4

[5] = substrate: CC[C@H](C)[C@H](NC(=O)[C@@H](NC(=O)[C@H](CCCCN)NC(=O)[C@@H](NC(=O)[C@H](CCC(=O)Nc1ccc([N+](=O)[O-])cc1)NC(=O)[C@@H](N)CCCCN)C(C)C)C(C)C)C(=O)NCC(N)=O; assay: Cleavage of AMC substrates by activated factor XIIIa, fluorescence plate reader (Michaelis-Menten kinetics); details: other: AMC substrates; λEX = 380 nm, λEm = 460 nm, room temperature; enzyme ca. 0,893 Einheiten/ml
Experimental: (§5) Die Aliquotierung des Zymogens Faktor XIII und Aktivierung des Zymogens FXIII zu Faktor XIIIa erfolgten analog der in Beispiel 3 beschriebenen Prozedur.
(§6) Sämtliche Lösungen wurden bei Raumtemperatur aufbewahrt. Die Bestimmung der Spaltung der AMC-Substrate durch FXllla wurde mit einem Fluoreszenz-Plattenreader Safire^2 der Firma Tecan (λEX = 380 nm, λEm = 460 nm) bei Raumtemperatur durchgeführt. • 100 µl TBS-Puffer (siehe oben, der Puffer kann gegebenenfalls auch eine Aminkomponente enthalten, beispielsweise H-Gly-Ethylester oder H-Gly-Gly-Ethylester oder ein anderes Amin) • 50 µl Substratlösung • 25 µl Enzymlösung (im Messansatz ca. 0,893 Einheiten/ml)
(§7) Die Michaelis-Menten-Auftragung für die AMC-enthaltenden Substrate ist in Fig. 3 gezeigt.

[6] = substrate: CC[C@H](C)[C@H](NC(=O)[C@@H](NC(=O)[C@H](CCCCN)NC(=O)[C@H](CCCCNC(=O)OCc1ccccc1)NC(=O)[C@H](CCC(=O)Nc1ccc([N+](=O)[O-])cc1)NC(=O)[C@@H](N)Cc1c[nH]cn1)C(C)C)C(=O)NCC(N)=O; assay: as above; details: other: AMC substrates; λEX = 380 nm, λEm = 460 nm, room temperature; enzyme ca. 0,893 Einheiten/ml
Experimental: as §5, §6, §7

B1: Faktor XIIIa (Homo sapiens) (protein)
chain: GVNLQEFLNVTSVHLFKERWDTNKVDHHTDKYENNKLIVRRGQSFYVQIDFSRPYDPRRDLFRVEYVIGRYPQENKGTYIPVPIVSELQSGKWGAKIVMREDRSVRLSIQSSPKCIVGKFRMYVAVWTPYGVLRTSRNPETDTYILFNPWCEDDAVYLDNEKEREEYVLNDIGVIFYGEVNDIKTRSWSYGQFEDGILDTCLYVMDRAQMDLSGRGNPIKVSRVGSAMVNAKDDEGVLVGSWDNIYAYGVPPSAWTGSVDILLEYRSSENPVRYGQCWVFAGVFNTFLRCLGIPARIVTNYFSAHDNDANLQMDIFLEEDGNVNSKLTKDSVWNYHCWNEAWMTRPDLPVGFGGWQAVDSTPQENSDGMYRCGPASVQAIKHGHVCFQFDAPFVFAEVNSDLIYITAKKDGTHVVENVDATHIGKLIVTKQIGGDGMMDITDTYKFQEGQEEERLALETALMYGAKKPLNTEGVMKSRSNVDMDFEVENAVLGKDFKLSITFRNNSHNRYTITAYLSANITFYTGVPKAEFKKETFDVTLEPLSFKKEAVLIQAGEYMGQLLEQASLHFFVTARINETRDVLAKQKSTVLTIPEIIIKVRGTQVVGSDMTVTVEFTNPLKETLRNVWVHLDGPGVTRPMKKMFREIRPNSTVQWEEVCRPWVSGHRKLIASMSSDSLRHVYGELDVQIQRRPSM
notes: Aktivierung des Zymogens FXIII zu Faktor XIIIa; purchased Aventis Behring Fibrogammin HS
- Km [1]: 40 µM
- Km [2]: 86 µM
- Km [3]: 49 µM
- Km [4]: 78 µM
- Km [5]: 30 µM
- Km [6]: 41 µM
